Laboratory results taken from the DeepSol protein solubility set.

experiment: soluble on expression in E. coli; label from the status in PepcDB or PDB records

Row | Sequence | soluble on expression in E. coli
1 | MRAGIYRRSAGQGAEEKPEAVRAGHRGGGERHHDHAHHDGEGEFVVREELLHGRSVRFRRRSERIDEHEHRQRDRGHAQPGADRGAPGRQRATTGDNVCDGTPGSPHRRVRRRRPAPAA | not soluble
2 | MRAGVREVIDDSSERTLQQVIERAFLRTKGAIIRQKRVFGFVSAKGGDGGSCIAANFAFALSQEPDIHVLAVDISLPFGDLDMYLSGNTHSQDLADISNASDRLDKSLLDTMVQHISPSLDLIPSPATFEKIVNIEPERVSDLIHIAASFYDYIIVDFGASIDHVGVWVLEHLDELCIVTTPSLQSLRRAGQLLKLCKEFEKPISRIEIILNRADTNSRITSDEIEKVIGRPISKRIPQDEDAMQESLLSGQSVLKVAPKSQLSKTIVDWALHLNGVSRPNKRSIWERLKIK | not soluble
3 | MRARGRLLPRLLRTNIQSSRFLVSLGHTNDVMSSHLCSLCHLDHHPHPTPPSSSSSSSSLSLCAWLSCVCVCVCVYMHTTYHTGLSTYQCSILQPPPSPSLSTHTFLCVYCVLAPSSPPCIMVDTSSSAPASASPAITTSAAATTPVVILVVGMAGTGKTTLVHRMQHYAHTNGIRSYFINLDPAVTHTPYNVNIDIRDSVRYGEVMKNYRLGPNGAIMTSLNLFATKIHQVVSLLEKKEEMLDWIIVDTPGQIEVFTWSASGQLMADSFGAVFPTVLLFVADTVRCVSSPQTFVSTMLYSSGIMLKQQVPLVVVFNKTDVVSADSVIAWMRDNDALDEAVTNPHRSNRSRRAVSGEPGDGEDADWRGEGTRIGAAALGSQDALLANQGSGYAGTLAQSMSLFLHEFYEDLPYAAVSAASGAGMSELAASIERGKQQALEAKAERSAH | not soluble
4 | MRAVAEQARVKTLRIQPRAMALPPDELAECARTAVNEALADLRSAMPSDAGPGVDPAAALEYLNQVQVEGLRTLELVTGALEQAMAQIRQTAAAHGTPAPHGLHRIVEEVQQTLAAVSRPPQEAPDDLEGTAEAAQGRVRAVAEPGGRIRSLTVQARAMRSPSQELAEHIVTAVNNALDDLQAKTRRETEIVEIDQRRLDELRESAMRQSAEFMRSVSDMINSIQPR | not soluble
5 | MRCILLGSGTSTGVPEVGCHCRVCRSEDRHDKRTRTSLLIITDAGKRILIDCSPDFRQQALFAGIDSLDAVLLTHEHFDHVGGLDDLRTICWHRELAVYAEQNVLDSIRDRLHYVFRKNPYPGTPLLKLCEVKPDMPFQVADLTVEPLRIMHGRLPILGYKIGEMAFLTDMKDIAAEEIECLKSCRLLFINGLRYRKEHPSHQTIEQAIDTIGQIGNPESVLIHLSHHAPLHQEHLEILPPHIHSGYDGLEAIIDEKGIRIKDFEPHVSRSEYHYQDCGRIGYESALTLQRKLFHDAVADKLENRKPQNTLLFCEHEPVLTLGKHGHEENLLLSESELKSRDIRLFHIERGGDITYHGPGQITGYPIFDLEQYGIGLRSYIEMLEQCIIDLIAIFGLKGERSAGASGVWLDPDIPGRTRKICAIGVKSSRHITMHGFALNVNTDLDYFKLINPCGFSDRGVTSISRELGREQDFILVKQQLEAVFRRNFGAL | not soluble
6 | MRCIMTEDAQKLAIMEQDVKIVRALSKIKHKIVVMSGKGGVGKSTVTVKLAEEFSRNGYSVCVLDADVHGPDIPKMMRVREPEITLTGNLINPIPTPVGATVMSIEFFLPSEDTPVIWRGPKKTGAIRQLLADVNWEGIDVLIVDNPPGTGDEPLTVLQSIPGIDGVVIVTTPQEVSIHDVEKCINMVNHLKIPVLGIIENMSYLQCPECGKKVFLFGKDGGKYLADKFDLQFLGEIPFETGISGDNESSASSYINNEMVKIFNKLAKYLKDGGANLEHHHHHH | soluble
7 | MREFGEKIKRLRLAKKISRSEFCGDESELSIRQLIRIENGESRPILTKLKYIAERLGVEDYKLMPSYIELDKEYLELKYFLMRTPTYEDETIAQKKESVFDKIFEEYYDRLPEEERFIIPNYSYLALTNYTVQKLPEKLVEILSFW | not soluble
8 | MREHTLKNGMKLLMVERHTSPTVAAWIRFRVGSVDERSDERGIAHLLEHMLFKGTKTLGTKDYAAEKPLLDKIEETAQALIAEKAKGARADAGRVDELGKKLNALEADAGKYVIKEEFAEIYARNGGAGYNAMTGKDGTTYLINMPSNKLELWAAIEGDRMQNAVLREFYTERDVVMEERRRSYDTEPGSKLWETFVAVTYNAHPYGQPIIGWMSDLENLTRTKAEEFFRRYYKPNNAIVALVGDIDPDKTIALVEKYFGDIPPGTLVGPVAVVEPAQQGERRVEILADAEPELLVGFHKPTLPNPDDYVFDVIDMILADGRTSRLYKKLVVEKQLAAEVSTFSAPGSRYPNLFVLAATPRAPHTAKEVEDAIYEELERLKKEPMTERELAQILNRLEYEESRQMISNGGLARNLTEYEAVTGSWRYLIEHRKEVAKVTPDDVIRVARKYFVRENRTVGVITKKEDVK | not soluble
